The values below come from paper PMC7821112 (The New Phytologist, 2020).

For test [1], the target named is GST‐tagged Ghd7 (Grain number, plant height and heading‐date7) (rice (Oryza sativa)) (UniProt E5RQA1). Briefly: pull-down.
In test [2] the target is T1, GST‐tagged Ghd7 (Grain number, plant height and heading‐date7) (rice (Oryza sativa), UniProt E5RQA1 1-257).
T1 sequence (looked up): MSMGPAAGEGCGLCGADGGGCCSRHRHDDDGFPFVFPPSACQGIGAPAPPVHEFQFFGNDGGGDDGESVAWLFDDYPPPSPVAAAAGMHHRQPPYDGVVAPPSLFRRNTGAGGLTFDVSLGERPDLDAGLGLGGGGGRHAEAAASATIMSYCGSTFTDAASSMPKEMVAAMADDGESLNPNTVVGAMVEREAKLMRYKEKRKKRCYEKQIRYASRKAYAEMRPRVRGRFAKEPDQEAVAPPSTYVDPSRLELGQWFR
Put plainly: pull-down.

For “MBP‐tagged Hd1 (Heading date 1) (from UniProt Q9FDX8 1-395) (natural protein)”, the stoichiometry N in test [1] was determined as 1.

B1: MBP‐tagged DTH8 (Days‐to‐heading on chromosome 8) (natural protein, rice (Oryza sativa), UniProt Q0J7P4 1-297, looked up)
chain: MKSRKSYGHLLSPVGSPPLDNESGEAAAAAAAGGGGCGSSAGYVVYGGGGGGDSPAKEQDRFLPIANVSRIMKRSLPANAKISKESKETVQECVSEFISFVTGEASDKCQREKRKTINGDDLLWAMTTLGFEAYVGPLKSYLNRYREAEGEKADVLGGAGGAAAARHGEGGCCGGGGGGADGVVIDGHYPLAGGLSHSHHGHQQQDGGGDVGLMMGGGDAGVGYNAGAGSTTTAFYAPAATAASGNKAYCGGDGSRVMEFEGIGGEEESGGGGGGGERGFAGHLHGVQWFRLKRNTN
Turning to B1, the “stoichiometry N” value in test [2] amounted to 1.

Usually stoichiometry N stands for a count of units in the complex or per binding partner.
